From patent publication US20070271623A1 (UNIVERSITY OF COPENHAGEN, published 2007)

Tests used:
[1] = biological target: T1, mutant full-length MKS1-S30A (histidine-tagged)
T1 chain: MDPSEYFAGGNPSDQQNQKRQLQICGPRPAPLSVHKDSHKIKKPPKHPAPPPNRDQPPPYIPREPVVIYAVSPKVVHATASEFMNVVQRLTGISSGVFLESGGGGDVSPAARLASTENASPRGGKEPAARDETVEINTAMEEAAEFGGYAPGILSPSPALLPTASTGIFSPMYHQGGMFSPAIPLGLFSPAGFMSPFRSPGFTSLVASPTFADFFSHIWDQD

[2] = biological target: T2, mutant MKS1-S30A C3-truncation (histidine-tagged)
T2 chain: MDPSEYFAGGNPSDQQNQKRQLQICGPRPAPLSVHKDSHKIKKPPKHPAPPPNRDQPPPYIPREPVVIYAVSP

B1: HA (influenza hemagglutin antigen)-tagged MPK4 (protein)
chain: YPYDVPDYAYPYDVPDYAYPYDVPDYAYPYDVPDYAYPYDVPDYAYPYDVPDYAMSAESCFGSSGDQSSSKGVATHGGSYVQYNVYGNLFEVSRKYVPPLRPIGRGAYGIVCAATNSETGEEVAIKKIGNAFDNIIDAKRTLREIKLLKHMDHENVIAVKDIIKPPQRENFNDVYIVYELMDTDLHQIIRSNQPLTDDHCRFFLYQLLRGLKYVHSANVLHRDLKPSNLLLNANCDLKLGDFGLARTKSETDFMTEYVVTRWYRAPELLLNCSEYTAAIDIWSVGCILGETMTREPLFPGKDYVHQLRLITELIGSPDDSSLGFLRSDNARRYVRQLPQYPRQNFAARFPNMSAGAVDLLEKMLVFDPSRRITVDEALCHPYLAPLHDINEEPVCVRPFNFDFEQPTLTEENIKELIYRETVKFNPQDSV
[1]
  in vitro phosphorylation assay (32P-γ-ATP, SDS-PAGE, phosphorimager): the mutant full-length MKS1 (S30A) was phosphorylated
[2]
  in vitro phosphorylation assay (32P-γ-ATP, SDS-PAGE, phosphorimager): the mutant C3 truncated MKS1 (C3-S30A) was not phosphorylated by HA-tagged MPK4
